Tests used:
human chondrocyte = assay: Human chondrocyte proliferation (% EdU+); format: cell-based; conditions: 48h, vehicle 0.744
Description: Chondrocytes were cultured for 48h in the presence of FGF17 at indicated dose. FGF18 was added at 0.1 ug/mL as a positive control. Fresh media and FGF17 was added every 24h. Table of % EdU+ chondrocyte and p-values depicted. Mean∓S.D. (*p<0.05 by Tukey Honest Significant Difference T-test, n=2-3)

mouse myoblast cells = assay: Mouse myoblast proliferation assay (EdU); format: cell-based; conditions: for % EdU / Ave. + EdU Count: 48h; for Ave. + EdU Count: FM 165
Description: (§1) FIG. 5A) Bar graph quantitation of % EdU+ mouse myoblast in response to BMP7. Myoblast were cultured 48h in the presence of BMP7 at indicated dose. Fresh media and BMP7 was added every 24h, followed by 2 hour EdU pulse and fixation. Mean∓S.D. Significant p-values (Vehicle˜BMP7 0.025 ug/mL: 1.21E-07, Vehicle˜BMP7 0.075 ug/mL: 8.05E-07, Vehicle˜BMP7 0.2255 ug/mL: 3.37E-03, Vehicle˜BMP7 0.9 ug/mL: 4.99E-02). FIG. 5B) Bar graph quantitation of % EdU+ human myoblast (person) in response to BMP7. Myoblast were cultured 72h in the presence of BMP7 at indicated dose. Cells were pulsed with EdU for 4 hours before fixation. Mean∓S.D. Significant p-values (Vehicle˜BMP7 1.56 ng/mL: 0.04). (*p<0.05 by Welch's One-Tailed T-test, n=2)
FIG. 6A) Bar graph of % EdU+ mouse myoblast cells compared to vehicle. Mouse myoblast were cultured 48h in the presence of indicated factors, followed by a 2 hour EdU pulse prior to fixation. Mean∓S.D. Significant p-values (FM˜BMP7: 0.008 ug/mL: 3.17E-02, FM˜Leucine: 300 uM BMP7: 0.008 ug/mL: 2.77E-03, FM˜Leucine: 100 uM BMP7: 0.008 ug/mL: 3.72E-05, FM˜Leucine: 900 uM BMP7: 0.008 ug/mL: 2.52E-03). (*p<0.05 by One-Way ANOVA Tukey Honest Significant Difference, n=2-6)
FIG. 7A: Bar graph of % EdU+ mouse myoblast cells compared to vehicle. Mouse myoblast were cultured 48h in the presence of indicated factors. EdU pulse and fixation. Mean∓S.D. (*p<0.05 by Student's One-Tailed T-Test of increased activity, n=2-6)
FIG. 10A) The suspension CHO cells were transiently transfected with either the empty control plasmid or the FGF17-hFcm encoding plasmid. After four days, the culture supernatants were collected and added into the culture of mouse myoblast cells for 48 hours, followed by a 2 hour EdU pulse prior to fixation. […] FIG. 10B) The suspension CHO cells were transiently transfected with the FGF17-hFcm encoding plasmid. After four days, the culture supernatants were collected and FGF17-hFcm was affinity-purified by Protein A membrane column. The purified FGF17-hFcm was added into the culture of mouse myoblast cells for 48 hours, followed by a 2 hour EdU pulse and fixation.
(§2) FIG. 11A: SDS-PAGE of culture supernatants from CHO cells transiently transfected with FGF17-hFcm or its mutants encoding plasmids (FGF17d181-216-hFcm, FGF17d204-216-hFcm, FGF17R204QK207Q-hFcm). The expressed FGF17-hFcm proteins and the mutant proteins were indicated by the white arrowheads. FIG. 11B) The culture supernatants from CHO cells transiently transfected with different FGF17 encoding plasmids were added into the culture of mouse myoblast cells for 48 hours followed by 2 hour EdU pulse and fixation.
as §2, with “12A)” for “11A:”, “(FGF17d197-216-hFcm, FGF17K191AK193AS200A-hFcm).” for “(FGF17d181-216-hFcm, FGF17d204-216-hFcm, FGF17R204QK207Q-hFcm).”, “12B)” for “11B)”, “hours,” for “hours”
(§3) FIG. 14A: Bar graph of % EdU+ mouse myoblast cells compared to vehicle. Myoblast were cultured 48h in the presence of indicated factors. Fresh media and factors were added every 24h, followed by 2 hour EdU pulse and fixation. Mean∓S.D. Table quantitation of % EdU and p-values (*p<0.05 by One-Way ANOVA Tukey Honest Significant Difference, n=2-6)
as §3, with “15A:” for “14A:”, “p-values shown.” for “p-values”, “Student's One-Tailed T-Test of increased activity,” for “One-Way ANOVA Tukey Honest Significant Difference,”
Bar graph of total EdU+ mouse myoblast cells compared per condition. Myoblast were cultured 48h in the presence of indicated factors. […]

human myoblast = assay: Human myoblast proliferation (nuclei counts, EdU counts); format: cell-based; conditions: 72h; for Nuclei Counts: vehicle 2083.5
Description: as §1
Bar graph of total EdU+ mouse myoblast cells compared per condition. Myoblast were cultured 48h in the presence of indicated factors. Fresh media and factors were added every 24h, followed by 2 hour EdU pulse and fixation. Mean∓Standard Deviation(SD) Table quantitation of EdU counts per field and p-values for mouse assay (*p<0.05 by Student's One-Tailed T-Test of increased activity, n=3-6, Synergy values <1 are evidence of effect). Bar graph of total EdU+ human myoblast cells per condition. Myoblast were cultured 72h in the presence of indicated factors, followed by 4 hour EdU pulse and fixation. Fresh media and factors were added every 24h. Mean∓Standard Deviation(SD). Table quantitation of +EdU counts and p-values for human assay. (*p<0.05 by Student's One-Tailed T-Test of increased activity, n=3-6, Synergy values <1 are evidence of effect)

[1] = tested on: mouse myoblast cell lines; assay: Myogenic gene RNA expression in mouse myoblasts by real-time qPCR; format: cell-based; conditions: 48h in fusion media
Description: (§4) Myogenic gene RNA expression (fold change to FM) in response to vehicle (FM) in mouse myoblast cell lines monitored by real-time qPCR. Myoblast were cultured 48h in fusion media. Mean±SD. n=3. (Y,Z) Differential induction of myogenic gene expression by FGF17 in human myoblast myoblasts. Quantitation table of myogenic gene RNA expression (fold change to FM-fusion media (DMEM+2% horse serum)) in response to FM or rh-FGF17 in aged human myoblast cell lines by real-time qPCR. Myoblast were cultured (B) 48 hours or (C) 72 hours in FM. Mean∓SD. n=3.
(§5) RNA was isolated from each well (RNeasy Mini Kit, Qiagen) and cDNA was obtained by reverse-transcription (High Capacity Reverse Transcription Kit, Thermo Fisher Scientific). Real-time quantitative PCR was performed using QuantStudio3 (Thermo Fisher).

[2] = tested on: aged human myoblast cell lines; assay: Myogenic gene RNA expression in aged human myoblasts by real-time qPCR; format: cell-based
Description: as §4, §5
Aged human myoblasts were cultured in well plates. […] Cells that had been cultured with IGF2 had increases in levels of MYOG at 48 hours and levels of MYOD at 72 hours.

78 weeks old mice = assay: BaCl2 muscle injury in old mice, intramuscular FGF17; format: in vivo, mouse; conditions: FGF17 500 ng/mL intramuscular 2h and 48h after BaCl2 injury
Description: FIG. 16A) Experiment overview. Intramuscular injection of 1.2% of BaCl2 (7 ul/TA) was used to generate chemical injury in the TAs of 78 weeks old mice. FGF17 (500 ng/mL) was administered via intramuscular injection after 2h and 48h of muscle injury. FIG. 16B) Quantification of the regenerative index calculated as the number of newly regenerated fibers per mm 2 of injury area. Regenerated fibers were identified as fibers with central nuclei,****p<0.0001 (unpaired t-test). FIG. 16C) Histogram showing the fibrotic index calculated as the percentage of the fibrotic area. *p=0.0186 (unpaired t-test).

12 weeks old mice = assay: Dexamethasone induced muscle atrophy, FGF17; format: in vivo, mouse; conditions: Dexamethasone 25 mg/kg i.p. 20 days; FGF17 0.5 mg/kg subcutaneous
Description: FIG. 17A) Experiment overview and groups. […] Muscle weight was assessed on Day 21. Forelimb grip strength and both limb grip strength were measured on Day 7, 13 and 21 FIG. 17B) TAs muscle weight over initial body weight shown as the percentage change from vehicle. ***p=0.0005, *p=0.0499. […] One way Anova corrected for multiple comparisons using Tukey method was used to compare data.
The experimental design is C57BL/6J male mice with daily administration of Vehicle, N=7; dexamethasone (25 mg/kg i.p.), N=6, or dexamethasone+treatment article, N=6, for 20 days. This design can be used to test any single factor identified and validated in in vitro assays or complex mixtures of 2 or more factors.
On day 21, animals are sacrificed, and animal weight recorded. 0.5 ml of blood is collected via cardiac puncture and processed to plasma for storage of plasma samples at −80° C. The animals are perfused with 1×PBS. After carefully dissecting the skin from the GA/TA muscles of each hind leg, photos are taken, followed by excision of exclusively the GA or TA muscle, weighing the muscles, then flash freezing in isopentane at −80 C.

DM1 human myoblast = assay: Gene expression fold change in DM1 human myoblast; format: cell-based; conditions: 48h; BMP7 50 ng/mL, Butyrate 100 nM, IGF2 200 ng/mL; FM 1.000

B1: FGF18: FGF18 added at 0.1 ug/mL as a positive control (protein, UniProt O76093 28-207, looked up)
Fibroblast growth factor 18: EENVDFRIHVENQTRARDDVSRKQLRLYQLYSRTSGKHIQVLGRRISARGEDGDKYAQLLVETDTFGSQVRIKGKETEFYLCMNRKGKLVGKPDGTSKECVFIEKVLENNYTALMSAKYSGWYVGFTKKGRPRKGPKTRENQQDVHFMKRYPKGQPELQKPFKYTTVTKRSRRIRPTHPA
Human chondrocyte; 0.1 ug/mL
  % EdU: 6.039%

B2: FGF17: FGF17 polypeptide, FGFR agonist (protein, listed as Homo sapiens)
chain: TQGENHPSPNFNQYVRDQGAMTDQLSRRQIREYQLYSRTSGKHVQVTGRRISATAEDGNKFAKLIVETDTFGSRVRIKGAESEKYICMNKRGKLIGKPSGKSKDCVFTEIVLENNYTAFQNARHEGWFMAFTRQGRPRQASRSRQNQREAHFIKRLYQGQLPFPNHAEKQKQFEFVGSAPTRRTKRTRRPQPLT
Mouse myoblast cells; FGF17 0.0062 ug/mL, vehicle 3.14
  % EdU: 4.81%
Mouse myoblast cells; FGF17 0.01 ug/mL
  Ave. + EdU Count: 476
Mouse myoblast cells; FGF17 0.0125 ug/mL, vehicle 3.14
  % EdU: 3.02%
Mouse myoblast cells; FGF17 0.025 ug/mL, 48h (HA experiment), FM 11.162
  % Edu: 17.870%
Mouse myoblast cells; FGF17 0.025 ug/mL, vehicle 3.14
  % EdU: 3.85%
Mouse myoblast cells; FGF17 0.1 ug/mL
  Ave. + EdU Count: 1618
Human myoblast; FGF17 0.1 ug/mL, FM 205
  Ave. + EdU Counts: 349
[1]; FM 1.002
  Myf5 RNA expression (fold change to FM), Mean: 1.376
  Myod1 RNA expression (fold change to FM), Mean: 1.230
[1]; FM 1.011
  Pax7 RNA expression (fold change to FM), Mean: 6.118
[2]; 48 hr, FM 1.001
  MYOD1 RNA expression (fold change to FM): 0.604
[2]; 48 hr, FM 1.013
  MYOG RNA expression (fold change to FM): 2.353
[2]; 48 hr, FM 1.04
  MYF5 RNA expression (fold change to FM): 1.922
[2]; 72 hr, FM 1.023
  MYF5 RNA expression (fold change to FM): 0.499
[2]; 72 hr, FM 1.055
  MYOD1 RNA expression (fold change to FM): 1.627
[2]; 72 hr, FM 1.092
  MYOG RNA expression (fold change to FM): 13.124
Human chondrocyte; 0.1 ug/mL
  % EdU: 4.675%
Human chondrocyte; 0.20 ug/mL
  % EdU: 9.085%
Human chondrocyte; 0.40 ug/mL
  % EdU: 16.773%
78 weeks old mice
  Fibrotic index: reducing fibrosis
  Muscle regeneration (regenerative index): Promoted the Regeneration of Muscle
12 weeks old mice
  Muscle atrophy (muscle weight, forelimb and both limb force): Protects Against Dexamethasone Induced Muscle Atrophy

B3: BMP7: BMP7 polypeptide, BMP receptor agonist (protein, UniProt P18075 293-431, looked up)
Bone morphogenetic protein 7: STGSKQRSQNRSKTPKNQEALRMANVAENSSSDQRQACKKHELYVSFRDLGWQDWIIAPEGYAAYYCEGECAFPLNSYMNATNHAIVQTLVHFINPETVPKPCCAPTQLNAISVLYFDDSSNVILKKYRNMVVRACGCH
DM1 human myoblast
  MYF5 expression fold change compared to FM: 0.709
  MYOD1 expression fold change compared to FM: 0.709
  MYOG expression fold change compared to FM: 0.361
Mouse myoblast cells; BMP7 0.025 ug/mL, vehicle 10.56
  % EdU: 18.08%
Mouse myoblast cells; BMP7 0.075 ug/mL, vehicle 10.56
  % EdU: 17.53%
Mouse myoblast cells; BMP7 0.2255 ug/mL, vehicle 10.56
  % EdU: 14.93%
Mouse myoblast cells; BMP7 0.45 ug/mL, vehicle 10.56
  % EdU: 12.93%
Mouse myoblast cells; BMP7 0.9 ug/mL, vehicle 10.56
  % EdU: 13.91%
Mouse myoblast cells; BMP7 1.8 ug/mL, vehicle 10.56
  % EdU: 10.37%
Human myoblast; BMP7 0.78 ng/mL, donor
  Nuclei Counts: 2144.5
Human myoblast; BMP7 1.56 ng/mL
  Nuclei Counts: 2552.5
Human myoblast; BMP7 3.12 ng/mL
  Nuclei Counts: 2408
Human myoblast; BMP7 6.25 ng/mL
  Nuclei Counts: 2422.5
Human myoblast; BMP7 12.5 ng/mL
  Nuclei Counts: 2706
Human myoblast; BMP7 25 ng/mL
  Nuclei Counts: 2509
